Test results from article PMC2610489 (Developmental cell, 2008).

Molecular target: T1, Homothorax (Hth) (Drosophila, UniProt O46339 1-487)
T1 sequence (looked up): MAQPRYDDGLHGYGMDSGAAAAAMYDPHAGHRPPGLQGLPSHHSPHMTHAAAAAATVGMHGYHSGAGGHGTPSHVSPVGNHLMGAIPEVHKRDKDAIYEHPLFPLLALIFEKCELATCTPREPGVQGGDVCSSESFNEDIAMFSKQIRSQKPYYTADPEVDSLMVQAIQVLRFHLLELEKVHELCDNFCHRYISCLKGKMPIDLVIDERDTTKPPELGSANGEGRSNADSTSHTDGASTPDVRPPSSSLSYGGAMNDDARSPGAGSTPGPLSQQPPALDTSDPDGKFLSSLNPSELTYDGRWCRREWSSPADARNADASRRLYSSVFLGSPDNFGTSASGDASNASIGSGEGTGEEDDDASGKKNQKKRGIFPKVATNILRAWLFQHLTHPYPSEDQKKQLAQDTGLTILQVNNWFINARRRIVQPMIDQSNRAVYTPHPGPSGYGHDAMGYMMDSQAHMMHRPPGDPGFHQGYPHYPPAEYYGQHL
Experiment: native gel or EMSA

B1: Extradenticle (Exd) (natural protein, Drosophila, UniProt P40427 1-376, looked up)
chain: MEDPNRMLAHTGGMMAPQGYGLSGQDDGQNAGSENEVRKQKDIGEILQQIMSISEQSLDEAQARKHTLNCHRMKPALFSVLCEIKEKTVLSIRNTQEEEPPDPQLMRLDNMLIAEGVAGPEKGGGGAAAASAAAASQGGSLSIDGADNAIEHSDYRAKLAQIRQIYHQELEKYEQACNEFTTHVMNLLREQSRTRPITPKEIERMVQIIHKKFSSIQMQLKQSTCEAVMILRSRFLDARRKRRNFSKQASEILNEYFYSHLSNPYPSEEAKEELARKCGITVSQVSNWFGNKRIRYKKNIGKAQEEANLYAAKKAAGASPYSMAGPPSGTTTPMMSPAPPQDSMGYPMGSGGYDQQQPYDNSMGGYDPNLHQDLSP
  binding result: binds
